Experimental data published in article PMC4742757, “The Prodomain-bound Form of Bone Morphogenetic Protein 10 Is Biologically Active on Endothelial Cells*” (The Journal of Biological Chemistry, 2015).

Tests used:
[1] = biological target: the molecule itself; test: non-reducing SDS-PAGE; peak gel filtration fraction of purified pBMP10 on non-reducing SDS-PAGE; Coomassie stain and anti-BMP10 immunoblot
[2] = biological target: T1, BMPR-II extracellular domain (ECD), human, residues 27-150 (human, UniProt Q13873-1 27-150); test: native gel or EMSA; 10% native PAGE of purified pBMP10 complex alone or with BMPR-II ECD (molar ratio pBMP10:BMPR-II ECD 1:1, 1:2, 1:4); bands excised and immunoblotted for BMP10 GFD and prodomain; settings: both partners purified
T1 construct: Bone morphogenetic protein receptor type II, human, extracellular domain, residues 27-150 (NM_001204); Cloned in pET39b as DsbA-(His)6-TEV site-BMPR2 ECD; also called BMPR-II ECD; BMPR2 ECD; source: E. coli Rosetta DE3, periplasmic extract, purified (Ni-NTA, TEV cleavage, second Ni-NTA flowthrough, S75 gel filtration); not shown: DsbA, N-terminal, cleaved; His6, N-terminal, cleaved
T1 sequence (looked up): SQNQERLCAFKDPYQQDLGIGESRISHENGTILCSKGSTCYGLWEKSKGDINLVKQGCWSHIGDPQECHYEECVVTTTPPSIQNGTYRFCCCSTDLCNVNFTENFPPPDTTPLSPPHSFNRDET

- binding result [2]: binds
B1: BMP10 growth factor domain (GFD), recombinant human, from the in-house pBMP10 complex (ligand, UniProt O95393 317-424, looked up)
chain: NAKGNYCKRTPLYIDFKEIGWDSWIIAPPGYEAYECRGVCNYPLAEHLTPTKHAIIQALVHLKNSQKASKACCVPTKLEPISILYLDKGVVTYKFKYEGMAVSECGCR
notes: Bone morphogenetic protein 10, human; the mature growth factor domain cut from full-length proBMP10 by furin; Expressed from full-length proBMP10 cDNA, co-transfected with furin; Covalently linked (D-form) and non-covalently linked (M-form) dimers are both in the preparation; also called BMP10 GFD; mature BMP10; source: HEK EBNA cells transfected with proBMP10 and furin in pCEP4; purified from …
- binding result [1]: binds
